Patent US20070148201A1 (Pieris, published 2007)
Values belong to the binder of their own block, whether it stands above or below them.

Assays:
[1] = target: fusion construct of the CD4 V-domain and CD4 D1-domain of the human CD4 coreceptor (amino acids 1-184) with … (human, UniProt P01730 26-209); experiment: ELISA, mutein coated on plate, digoxigenin-conjugated CD4-VD1 titrated from 2000 nM, anti-digoxigenin Fab-AP detection, apparent KD from curve fit
Description: (§1) After washing five times with 100 μl PBST/0.05 per well employing an automated ELISA plate washer, the wells were filled with 100 μl PBST containing 3% w/v non-fat dry milk powder (Vitalia), in order to saturate unspecific binding sites and incubated for one hour at room temperature. After blocking, the microtiter plate was washed two times with 100 μl PBST/0.05 as described above.
(§2) Then a dilution series of conjugates of digoxigenin and either the prescribed protein target CD4-VD1 or the unrelated control protein RNaseB, both produced as described in Example 25, was prepared in PBST starting from 2000 nM concentration and incubated for 1 h at room temperature. Subsequently, plates were washed again five times like above and 20 μl of an anti-digoxigenin-Fab-fragment-alkaline phosphatase-conjugate (Roche), diluted 1:1000 in PBST was added to each well and incubated for 1 hour at room temperature. Plates were washed again five times as described above and 20 μl of the fluorogenic substrate AttoPhos (Roche; prepared as described by the manufacturer) was added to detect bound CD4-VD1 by means of the attached digoxigenin groups. After 10 minutes at room temperature fluorescence was excited at a wavelength of 430 nm (±17.5 nm) and measured at 535 nm (÷12.5 nm) in a GENiosPlus plate reader.
The resulting binding curves were fitted by non-linear least squares regression as described in Example 8 and are depicted in FIG. 14 and FIG. 15. The values obtained for the apparent dissociation constants of the complexes between the BBP muteins CD4-2C3-K20, CD4-2C3-N22, CD4-2G3-H22, CD4-2G3-L22, CD4-7B4-K21, CD4-7B4-K23, and CD4-7B4-N14 and the prescribed target protein CD4-VD1 as well as for the complexes between the BBP muteins and the control protein RNaseB are summarized in Table 11.

RNaseB [2] = target: T1, RNaseB (UniProt P61823 27-150); experiment: ELISA: BBP mutein coated on the plate, digoxigenin-conjugated RNaseB titrated 0-2000 nM, detected with anti-digoxigenin Fab-alkaline phosphatase, fluorescence (Example 27)
T1 construct: also called unrelated control protein RNaseB
T1 sequence (looked up): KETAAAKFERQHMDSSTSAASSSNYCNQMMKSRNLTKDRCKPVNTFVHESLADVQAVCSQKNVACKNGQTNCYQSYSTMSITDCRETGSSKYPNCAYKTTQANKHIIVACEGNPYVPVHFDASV
Description: as §1, §2

type I horse ferritin [3] = target: T2, type I horse ferritin (horse, UniProt P02791 2-175; Q8MIP0 2-182, limits assumed); experiment: ELISA, ferritin coated on plate, mutein titrated from 1000 nM, anti-T7-HRP detection, apparent KD from curve fit
T2 construct: the natural protein is a shell of light and heavy chains
Description: (§3) Afterwards, the wells were washed and blocked as described in Example 8.
(§4) Then, a dilution series of the BBP muteins from Example 11 in SA-buffer was prepared in PBST starting from 1000 nM concentration and incubated for 1 h at room temperature. Subsequently, plates were washed again five times, anti-T7 monoclonal antibody-HRP-conjugate was added and incubated for 1 hour at room temperature followed by washing and addition of fluorogenic HRP-substrate QuantaBlu™ as described in Example 8. After 10 minutes at room temperature fluorescence was excited at a wavelength of 320 nm (±12.5 nm) and measured at 430 nm (±17.5 nm) in a GENiosPlus plate reader.
The resulting binding curves were fitted by non-linear least squares regression as described in Example 8 and are depicted in FIG. 8. The values obtained for the apparent dissociation constants of the complexes between the BBP muteins and the prescribed target ferritin are summarized in Table 5.

RNaseB [4] = target: T1, RNaseB; experiment: ELISA, RNaseB coated on plate, anti-T7-HRP detection
Description: as §3, §4

type I horse ferritin [5] = target: T2, type I horse ferritin; experiment: high-throughput ELISA screening, crude cell extract, ferritin or aldolase coated on plate, anti-T7-HRP detection; Fer-N22 is one of the clones taken on from these 14
Description: (§5) For the detection of binding, these cell extracts were tested for their reactivity on the prescribed target type I horse ferri tin as well as the unrelated control protein aldolase in ELISA experiments. Therefore, wells of black Fluotrac 600 ELISA plates (Greiner; 384 well) were coated overnight with 20 μl of a solution of ferritin (Sigma) or aldolase (Roche) at 4° C., each at a concentration of 20 μg/ml in PBS. Plates were washed five times with 100 μl PBST/0.05 per well with an automated ELISA plate washer (Molecular Devices) leaving a residual volume of 10 μl of the washing buffer in each well after the last washing step. Residual binding sites were blocked by incubation with 100 μl PBST/0.05 containing 2% w/v BSA for 2 h at room temperature. Afterwards, plates were again washed five times as described above.
(§6) For complex formation between the BBP muteins and the immobilized proteins, the wells were incubated with 10 μl of the blocked cell extract from above for 1 hour at room temperature. […] After 60 minutes at room temperature fluorescence was excited at a wavelength of 320 nm (±12.5 nm) and measured at 430 nm (±17.5 nm) in a GENiosPlus plate reader (Tecan).

BSA = target: T3, BSA (UniProt P02769 25-607); experiment: ELISA: BSA coated on the plate as control, BBP mutein titrated 0-2000 nM, detected with anti-Strep-tag II antibody-HRP, fluorescence (Example 17)
T3 construct: Control protein coated on the ELISA plate; also called unrelated control protein BSA

[6] = target: T4, extracellular domain of human CD154 (human, UniProt P29965 47-261); experiment: ELISA, CD154 coated on plate, mutein titrated from 2000 nM, anti-Strep-tag II-HRP detection, apparent KD from curve fit
T4 construct: extracellular domain; Colony screening: conjugate with digoxigenin
T4 sequence (looked up): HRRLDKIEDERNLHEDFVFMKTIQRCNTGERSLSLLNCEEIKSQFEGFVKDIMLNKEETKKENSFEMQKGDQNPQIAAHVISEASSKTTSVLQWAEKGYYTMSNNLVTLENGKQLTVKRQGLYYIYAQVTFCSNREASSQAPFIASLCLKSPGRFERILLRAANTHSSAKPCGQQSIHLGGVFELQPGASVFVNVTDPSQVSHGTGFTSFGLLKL
Description: as §1
Then a dilution series of the muteins from Example 16 in SA-buffer was prepared in PBST starting from 2000 nM concentration and incubated for 1 h at room temperature. Subsequently, plates were washed again five times like above and 20 μl of an anti-Strep-tag® II monoclonal antibody-HRP-conjugate (IBA), diluted 1:1000 in PBST was added to each well and incubated for 1 hour at room temperature. Plates were again washed five times as described above and 20 μl of the fluorogenic HRP-substrate QuantaBlu™ (diluted as described by the manufacturer) was added to detect bound BBP muteins by means of the attached anti-Strep-tag® II monoclonal antibody-HRP-conjugate. After 10 minutes at room temperature fluorescence was excited at a wavelength of 320 nm (±12.5 nm) and measured at 430 nm (±17.5 nm) in a GENiosPlus plate reader.
The resulting binding curves were fitted by non-linear least squares regression as described in Example 8 and are depicted in FIG. 11. […]

type I horse ferritin [7] = target: T2, type I horse ferritin; experiment: high-throughput ELISA screening, crude cell extract, ferritin or aldolase coated on plate, anti-T7-HRP detection; Fer-I21 is one of the clones taken on from these 14
Description: as §5, §6

T2 sequence (P02791 2-175 limits assumed, chain 1 of 2): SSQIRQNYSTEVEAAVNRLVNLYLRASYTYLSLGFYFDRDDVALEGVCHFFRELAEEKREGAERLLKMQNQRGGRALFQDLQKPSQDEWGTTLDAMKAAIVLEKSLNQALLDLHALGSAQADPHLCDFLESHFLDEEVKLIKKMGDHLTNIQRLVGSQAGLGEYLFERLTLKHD
T2 sequence (Q8MIP0 2-182 limits assumed, chain 2 of 2): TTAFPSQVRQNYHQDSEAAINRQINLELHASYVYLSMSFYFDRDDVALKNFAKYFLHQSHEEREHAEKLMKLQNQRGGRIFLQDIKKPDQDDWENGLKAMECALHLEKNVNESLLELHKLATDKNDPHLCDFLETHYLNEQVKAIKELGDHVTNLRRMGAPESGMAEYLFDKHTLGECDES
T3 sequence (P02769 25-607 limits assumed): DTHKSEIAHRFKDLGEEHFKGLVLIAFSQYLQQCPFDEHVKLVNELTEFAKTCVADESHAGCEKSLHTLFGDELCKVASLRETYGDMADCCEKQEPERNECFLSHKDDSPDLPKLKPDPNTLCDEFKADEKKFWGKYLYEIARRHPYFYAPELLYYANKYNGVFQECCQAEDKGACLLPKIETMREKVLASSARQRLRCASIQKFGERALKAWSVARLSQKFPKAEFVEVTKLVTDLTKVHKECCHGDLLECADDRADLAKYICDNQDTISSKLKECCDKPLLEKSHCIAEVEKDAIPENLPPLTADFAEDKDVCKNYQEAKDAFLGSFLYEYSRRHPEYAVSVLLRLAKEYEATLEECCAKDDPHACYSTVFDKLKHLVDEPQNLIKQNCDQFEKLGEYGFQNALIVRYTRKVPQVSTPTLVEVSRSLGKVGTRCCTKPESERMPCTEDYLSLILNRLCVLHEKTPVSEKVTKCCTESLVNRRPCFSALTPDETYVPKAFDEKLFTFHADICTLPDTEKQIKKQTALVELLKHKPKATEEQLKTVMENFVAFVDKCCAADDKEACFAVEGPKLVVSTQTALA

- Kd (type I horse ferritin [3]): 45 nM
- signal-to-control ratio (ferritin against aldolase) (type I horse ferritin [5]): > 5
B4: BBP mutein Fer-N22 (designed binder)
chain: DVYHDGACPEVKPVDNFDWSQYHGKWWEVAKYPNGGESPGKCGWAEYTPEGKSVKVSNYHVIKKRERFIEGTAYPVGDSKIGKICHSLTWSGLTKENVFNVLSTDNKNYIIGYYCKYKERKKGHGDFVWVLSRSMVLTGEAKTAVENYLIGSPVVDSQKLVYSDFSEAACKVNN
notes: Tested as expressed from pBBP47: C-terminal T7 tag followed by Strep-tag II
- binding result (RNaseB [4]): no binding (tested: dilution series starting from 1000 nM)

- binding result (BSA): no binding (tested: 2000 nM)
- Kd [6]: 174 nM
B5: BBP mutein CD154-13-10-4 (designed binder)
chain: DVYHDGACPEVKPVDNFDWSQYHGKWWEVAKYPNSHETGGKCGWAEYTPEGKSVKVSNYHVITPHERFIEGTAYPVGDSKIGKIYHSLTWIGTTKENVFNVLSTDNKNYIIGYYCSYSEAGKGHQDFVWVLSRSMVLTGEAKTAVENYLIGSPVVDSQKLVYSDFSEAACKVNN

- binding result (BSA): no binding (tested: 2000 nM)
- Kd [6]: 89 nM
B8: BBP mutein CD154-13-10-1 (designed binder)
chain: DVYHDGACPEVKPVDNFDWSQYHGKWWEVAKYPNQIEQGGKCGWAEYTPEGKSVKVSNYHVIYASEDFIEGTAYPVGDSKIGKIYHSLTSSGVTKENVFNVLSTDNKNYIIGYYCGYREAPKGHMDFVWVLSRSMVLTGEAKTAVENYLIGSPVVDSQKLVYSDFSEAACKVNN

- signal-to-control ratio (ferritin against aldolase) (type I horse ferritin [7]): > 5
- Kd (type I horse ferritin [3]): 26 nM
B9: BBP mutein Fer-I21 (designed binder)
chain: DVYHDGACPEVKPVDNFDWSQYHGKWWEVAKYPNQKEKWGKCGWAEYTPEGKSVKVSNYHVIKRPERFIEGTAYPVGDSKIGKIYHSLTRLGKTKENVFNVLSTDNKNYIIGYYCLYPEGWKGHKDFVWVLSRSMVLTGEAKTAVENYLIGSPVVDSQKLVYSDFSEAACKVNN
notes: as for B4
- binding result (RNaseB [4]): no binding (tested: dilution series starting from 1000 nM)

The remaining lines, values behind:

B1: BBP mutein CD4-2C3-K20 (designed binder)
chain: DVYHDGACPEVKPVDNFDWSQYHGKWWEVAKYPNTSEHSGKCGWAEYTPEGKSVKVSNYHVIKKKERFIEGTAYSAGDSKIGKIYHSLTSVGKTKENVFNVLSTDNKNYIIGYYCSYKEKTKGHGDFVWVLSRSMVLTGEAKTAVENYLIGSPVVDSQKLVYSDFSEAACKVNN
- Kd [1]: 136 nM
- binding result (RNaseB [2]): no binding (tested: 2000 nM)

B2: BBP mutein CD4-2G3-L22 (designed binder)
chain: DVYHDGACPEVKPVDNFDWSQYHGKWWEVAKYPNIAELGGKCGWAEYTPEGKSVKVSNYHVINWNEMFIEGTAYPVGDSKIGKISHSLTKVGQTKENVFNVLSTDNKNYIIGYYCQYSERAKGHLDFVWVLSRSMVLTGEAKTAVENYLIGSPVVDSQKLVYSDFSEAACKVNN
- Kd [1]: 200 nM
- binding result (RNaseB [2]): no binding (tested: 2000 nM)

B3: BBP mutein CD4-7B4-N14 (designed binder)
chain: DVYHDGACPEVKPVDNFDWSQYHGKWWEVAKYPNRAEIGGKCGWAEYTPEGKSVKVSNYHVIKQWEKFIEGTAYPVGDSKIGKIYHSLTGTGSTKENVFNVLSTDNKNYIIGYYCNYHESRKGHRDFVWVLSRSMVLTGEAKTAVENYLIGSPVVDSQKLVYSDFSEAACKVNN
- Kd [1]: 177 nM
- binding result (RNaseB [2]): no binding (tested: 2000 nM)

B6: BBP mutein CD4-2G3-H22 (designed binder)
chain: DVYHDGACPEVKPVDNFDWSQYHGKWWEVAKYPNMTEVKGKCGWAEYTPEGKSVKVSNYHVIREKEWFIEGTAYPVGDSKIGKIYHSLTISGLTKENVFNVLSTDDKNYIIGYYCKYMELWKGHRDFVWVLSRSMVLTGEAKTAVENYLIGSPVVDSQKLVYSDFSEAACKVNN
- Kd [1]: 105 nM
- binding result (RNaseB [2]): no binding (tested: 2000 nM)

B7: BBP mutein CD4-7B4-K23 (designed binder)
chain: DVYHDGACPEVKPVDNFDWSQYHGKWWEVAKYPNGNELRGKCGWAEYTPEGKSVKVSNYHVINTSEGFIEGTAYPVGDSKIGKIYHSLTNTGMTKENVFNVLSTDNKNYIIGYYCSWEVSKGHHDFVWVLSRSMVLTGEAKTAVENYLIGSPVVDSQKLVYSDFSEAACKVNNS
- Kd [1]: 169 nM
- binding result (RNaseB [2]): no binding (tested: 2000 nM)

B10: BBP mutein CD4-2C3-N22 (designed binder)
chain: DVYHDGACPEVKPVDNFDWSQYHGKWWEVAKYPNAKESPGKCGWAEYTPEGKSVKVSNYHVIQRLEGFIEGTAYPVGDSKIGKIYHSLTTWGLTKENVFNVLSTDNKNYIIGYYCGYVEKSKGHPDFVWVLSRSMVLTGEAKTAVENYLIGSPVVDSQKLVYSDFSEAACKVNN
- Kd [1]: 185 nM
- binding result (RNaseB [2]): no binding (tested: 2000 nM)
